Test results reported in publication PMC6171917 (PLoS ONE, 2018).

T1: K5 (cytokeratin 5), purified (UniProt P13647 1-590)
T1 construct: cytokeratin 5 (K5), plasmid pET23-K5; source: E. coli Rosetta pLysS, inclusion bodies, purified (cation exchange, Superdex 200 in 6 M urea)
T1 sequence (looked up): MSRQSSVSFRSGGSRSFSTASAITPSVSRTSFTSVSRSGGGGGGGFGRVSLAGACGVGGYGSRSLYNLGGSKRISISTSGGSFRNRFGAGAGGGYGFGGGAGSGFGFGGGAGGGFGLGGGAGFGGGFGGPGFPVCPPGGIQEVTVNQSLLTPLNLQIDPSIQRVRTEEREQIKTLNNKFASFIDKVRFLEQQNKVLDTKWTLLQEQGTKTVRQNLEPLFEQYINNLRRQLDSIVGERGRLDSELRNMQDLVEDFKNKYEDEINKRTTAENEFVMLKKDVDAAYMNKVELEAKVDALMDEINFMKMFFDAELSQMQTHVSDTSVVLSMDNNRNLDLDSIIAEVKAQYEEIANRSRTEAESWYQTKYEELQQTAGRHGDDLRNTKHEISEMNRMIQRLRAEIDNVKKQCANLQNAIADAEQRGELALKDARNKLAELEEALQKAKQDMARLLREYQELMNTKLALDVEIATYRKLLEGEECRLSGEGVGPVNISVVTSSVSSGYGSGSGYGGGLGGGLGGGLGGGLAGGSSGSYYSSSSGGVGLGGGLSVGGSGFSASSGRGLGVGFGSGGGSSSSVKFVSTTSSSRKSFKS

T2: K5/K14 (mixture or heterodimer of full-length cytokeratins 5 and 14) (UniProt P13647 1-590; P02533 1-472)
T2 construct: cytokeratin 5 (K5), plasmid pET23-K5; cytokeratin 14 (K14), plasmid pET23-K14; Same two recombinant proteins used spotted in 8 M urea (dot blot) and as in vitro assembled filaments (sedimentation assays); also called K5/K14 IFs; K5/K14 filaments; source: mixed for spotting, or heterodimer isolated by anion exchange and assembled into IFs
T2 sequence (looked up) 1: T1 sequence (looked up)
T2 sequence (looked up) 2: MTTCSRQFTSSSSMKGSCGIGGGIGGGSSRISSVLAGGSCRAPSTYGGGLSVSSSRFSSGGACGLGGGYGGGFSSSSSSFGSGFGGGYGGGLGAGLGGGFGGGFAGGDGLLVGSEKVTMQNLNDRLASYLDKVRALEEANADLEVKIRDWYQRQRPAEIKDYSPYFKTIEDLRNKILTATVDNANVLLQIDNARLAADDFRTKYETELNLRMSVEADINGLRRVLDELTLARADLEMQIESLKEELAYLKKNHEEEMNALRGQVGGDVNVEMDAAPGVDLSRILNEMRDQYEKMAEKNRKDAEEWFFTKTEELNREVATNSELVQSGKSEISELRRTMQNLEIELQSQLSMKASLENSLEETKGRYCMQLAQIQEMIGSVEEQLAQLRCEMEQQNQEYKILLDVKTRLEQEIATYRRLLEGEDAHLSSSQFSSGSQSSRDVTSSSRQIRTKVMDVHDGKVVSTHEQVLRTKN

B1: K14 (cytokeratin 14), purified (natural protein, UniProt P02533 1-472, looked up)
chain: T2 sequence (looked up) 2
notes: cytokeratin 14 (K14), plasmid pET23-K14; source: E. coli Rosetta, inclusion bodies, purified (anion exchange, gel filtration in 6 M urea)
B2: EGFP-DSP C-terminus (C-terminus of desmoplakin tagged at the N-terminus with EGFP) (domain or fragment, UniProt P15924-1 2194-2871, looked up)
chain: PHTGLLLLSVQKRSMSFQGIRQPVTVTELVDSGILRPSTVNELESGQISYDEVGERIKDFLQGSSCIAGIYNETTKQKLGIYEAMKIGLVRPGTALELLEAQAATGFIVDPVSNLRLPVEEAYKRGLVGIEFKEKLLSAERAVTGYNDPETGNIISLFQAMNKELIEKGHGIRLLEAQIATGGIIDPKESHRLPVDIAYKRGYFNEELSEILSDPSDDTKGFFDPNTEENLTYLQLKERCIKDEETGLCLLPLKEKKKQVQTSQKNTLRKRRVVIVDPETNKEMSVQEAYKKGLIDYETFKELCEQECEWEEITITGSDGSTRVVLVDRKTGSQYDIQDAIDKGLVDRKFFDQYRSGSLSLTQFADMISLKNGVGTSSSMGSGVSDDVFSSSRHESVSKISTISSVRNLTIRSSSFSDTLEESSPIAAIFDTENLEKISITEGIERGIVDSITGQRLLEAQACTGGIIHPTTGQKLSLQDAVSQGVIDQDMATRLKPAQKAFIGFEGVKGKKKMSAAEAVKEKWLPYEAGQRFLEFQYLTGGLVDPEVHGRISTEEAIRKGFIDGRAAQRLQDTSSYAKILTCPKTKLKISYKDAINRSMVEDITGLRLLEAASVSSKGLPSPYNMSSAPGSRSGSRSGSRSGSRSGSRSGSRRGGFDATGNSSYSYSYSFSSSSIGH
notes: construct previously described [8]; KD curves use the active concentration; source: HEK 293T, transfected (calcium phosphate), soluble fraction of cell lysate; not shown: EGFP, N-terminal, kept

Columns and labels:
[1] = biological target: T1, K5 (cytokeratin 5), purified; experiment: co-sedimentation; K5 and K14 mixed 1.1:1, heterodimer isolated on anion exchanger in 8 M urea, dialyzed against 0.7 mM sodium phosphate pH 7.5, assembly with 20 mM KCl at 37°C 30 min; 20,000 × g 4°C 30 min, pellet and supernatant by SDS-PAGE; details: both partners purified
[2] = biological target: T3, desmin, full-length (UniProt P17661 1-470); experiment: co-sedimentation; FluoBACE on in vitro assembled IFs (25 μg/mL constant); serial dilutions of HEK 293T soluble extract with EGFP-DSP C-terminus (active ≤ 30 nM); 15 min at 4°C (K5/K14 IFs) or 22°C (desmin IFs); 20,000 × g 30 min; fluorescence in supernatant; one site specific binding with Hill slope; apparent Kd; details: one partner purified
T3 construct: desmin; The desmin fragments are said to be human; also called desmin IFs; source: E. coli, purified following a published protocol [37]; also whole E. coli extract; assembled in vitro into IFs for sedimentation assays

[3] = biological target: T2, K5/K14 (mixture or heterodimer of …); experiment: as above; details: one partner purified

T3 sequence (P17661 whole entry, the tested form may be a part): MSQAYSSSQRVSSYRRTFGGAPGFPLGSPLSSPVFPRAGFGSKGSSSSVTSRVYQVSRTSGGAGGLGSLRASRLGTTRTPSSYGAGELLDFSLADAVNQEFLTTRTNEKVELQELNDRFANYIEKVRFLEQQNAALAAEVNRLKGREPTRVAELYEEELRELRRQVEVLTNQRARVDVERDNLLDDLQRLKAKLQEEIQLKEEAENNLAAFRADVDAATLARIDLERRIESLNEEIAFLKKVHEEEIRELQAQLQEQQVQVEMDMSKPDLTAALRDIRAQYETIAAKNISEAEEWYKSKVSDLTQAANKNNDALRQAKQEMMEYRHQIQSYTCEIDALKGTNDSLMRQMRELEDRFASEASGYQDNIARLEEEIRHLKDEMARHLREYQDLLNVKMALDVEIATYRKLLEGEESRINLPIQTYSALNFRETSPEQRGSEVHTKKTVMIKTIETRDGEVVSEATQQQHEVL

| Binder | binding result [1] | Kd [2] [nM] | Kd [3] [nM] |
| --- | --- | --- | --- |
| B1 | binds |  |  |
| B2 |  | 18 | 10 |
